Assay [1] concerns the target T1, recombinant mouse IL-1RI Fc chimera (R&D 771-MR-100) (mouse, UniProt P13504 20-338).
T1 construct: Coated on ELISA plates at 1 µg/ml; used in place of canine and feline IL-1RI, which were not commercially available; also called IL-1RI receptor; Fc part of the bought chimera not given; not described
T1 sequence (looked up): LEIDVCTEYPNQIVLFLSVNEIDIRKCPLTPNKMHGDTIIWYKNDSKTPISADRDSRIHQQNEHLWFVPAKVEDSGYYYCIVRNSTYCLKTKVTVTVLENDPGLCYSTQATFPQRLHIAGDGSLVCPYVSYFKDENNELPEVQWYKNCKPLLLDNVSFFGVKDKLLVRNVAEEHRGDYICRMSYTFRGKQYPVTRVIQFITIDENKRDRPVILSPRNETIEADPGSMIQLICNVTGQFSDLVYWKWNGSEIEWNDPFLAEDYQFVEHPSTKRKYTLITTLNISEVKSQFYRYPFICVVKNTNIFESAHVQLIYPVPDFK
The assay is described as follows: ELISA on coated mouse IL-1RI Fc chimera, detection with biotinylated anti-fIL-1β antibody. A general note: In an ELISA, binding on a coated surface is turned into a signal by an enzyme label.

Assay [2] addresses T1, recombinant mouse IL-1RI Fc chimera …. Description: ELISA on coated mouse IL-1RI Fc chimera, detection with biotinylated anti-cIL-1β antibody.
The target is the same in assay [3]. Description: ELISA on coated mouse IL-1RI Fc chimera.

B1: feline IL-1β-D145K mutein antigen (ligand)
chain: GSAAIQSQDYTFRDISQKSLVLSGSYELRALHLNGQNMNQQVVFRMSFVHGEENSKKIPVVLCIKKNNLYLSCVMKDGKPTLQLEMLDPKVYPKKKMEKRFVFNKTEIKGNVEFESSQFPNWYISTSQAEEMPVFLGNTKGGQDITKFIMESASTSHHHHHHGGCG
notes: also called fIL-1β-D145K antigen
On to B1, for which, in assay [1], the binding result is on record as “binds”.

B2: canine IL-1β wild type of SEQ ID NO:29 (ligand)
chain: AAMQSVDCKLQDISHKYLVLSNSYELRALHLNGENVNKQVVFHMSFVHGDESNNKIPVVLGIKQKNLYLSCVMKDGKPTLQLEKVDPKVYPKRKMEKRFVFNKIEIKNTVEFESSQYPNWYISTSQVEGMPVFLGNTRGGQDITDFTMEFSS
notes: also called purified canine IL-1β wild type; wild type canine IL-1β
In the case of B2, in assay [2], the binding result is on record as “binds”.

B3: commercially available recombinant canine IL-1β protein (R&D 3747-CL-025) (ligand, UniProt Q28292 115-266, looked up)
chain: B2 chain
notes: Bought protein; also called recombinant canine IL-1β purchased from R&D system; commercially available canine IL-1β standard
B3: in assay [2], the binding result is “binds”.

B4: cIL1b-D145K-CMV-Ntt830-E4 VLPs (other)
chain 1: MGQYIKANSKFIGITERRRRPRRGSRSAPSSADANFRVLSQQLSRLNKTLAAGRPTINHPTFVGSERCKPGYTFTSITLKPPKIDRGSGGGSEEEEGGGSGSYYGKRLLLPDSVTEYDKKLVSRIQIRVNPLPKFDSTVWVTVRKVPASSDLSVAAISAMFADGASPVLVYQYAASGVQANNKLLYDLSAMRADIGDMRKYAVLVYSKDDALETDELVLHVDVEHQRIPTSGVLPV
chain 2: MGSAAMQSVDCKLQDISHKYLVLSNSYELRALHLNGENVNKQVVFHMSFVHGDESNNKIPVVLGIKQKNLYLSCVMKDGKPTLQLEKVDPKVYPKRKMEKRFVFNKIEIKNTVEFESSQYPNWYISTSQVEGMPVFLGNTRGGQDITKFTMEFSSTSHHHHHHGGCG
modifications: engineered free cysteine linked to the maleimide of SMPH bound to the VLP; lysine on the VLP surface derivatized with SMPH
notes: also called cIL1b-D145K-CMV-Ntt830-E4 vaccine; cIL-1b-D145K-CMV vaccine
In the case of B4, the binding result in assay [3] is on record as “binds”.

B5: canine IL-1β-D145K mutein antigen (ligand)
chain: B4 chain 2
notes: expressed in E. coli and purified by IMAC and gel filtration; also called cIL-1β-D145K antigen; cIL1b-D145K-C6Hcg
As for B5, the binding result in assay [2] was “binds”.

B6: fIL-1b-D145K-CMV-Ntt830-E4 VLPs (other)
chain 1: B4 chain 1
chain 2: B1 chain
modifications: engineered free cysteine linked to the maleimide of SMPH bound to the VLP; lysine on the VLP surface derivatized with SMPH
notes: also called fIL-1b-D145K-CMV-Ntt830-E4 vaccine; fIL1b145K-CMV-Ntt830-E4 vaccine
With B6, in assay [3], the binding result is listed as “binds”.

B7: purified feline IL-1β wild type of SEQ ID NO:38 (ligand)
chain: AAIQSQDYTFRDISQKSLVLSGSYELRALHLNGQNMNQQVVFRMSFVHGEENSKKIPVVLCIKKNNLYLSCVMKDGKPTLQLEMLDPKVYPKKKMEKRFVFNKTEIKGNVEFESSQFPNWYISTSQAEEMPVFLGNTKGGQDITDFIMESAS
notes: also called purified wild type feline IL-1β; recombinant feline wild type IL-1β
On to B7, for which, in assay [1], the binding result was “binds”.

Values taken from patent US20250281586A1 (ELANCO US, published 2025).
